The text below walks through data of patent US20190382462A1 (published 2019).

Where no end group is shown, it is not given here.

The experiment deals with HRP-conjugated protein-A (UniProt P38507 37-477, HRP conjugate). Briefly: ELISA: HRP-protein A added to immobilized biotinylated CRF in the absence of CRFBP-Fc. The text has this: Biotinylated CRF was immobilized on an avidin-coated ELISA plate. […] OD=optical density.
On the technique in general: In an ELISA, binding on a coated surface is turned into a signal by an enzyme label.

B1: Biotinylated CRF (corticotropin-releasing factor) (peptide, UniProt P06850 154-194, looked up)
peptide: SEEPPISLDLTFHLLREVLEMARAEQLAQQAHSNRKLMEII
modifications: ends and bridges not checked; also: biotinylated, site not given here
notes: Immobilized on an avidin-coated ELISA plate; also called corticotropin-releasing hormone; CRH
As for B1, the binding result is “no binding”.
